{"source": "paper doi:10.1101/2024.05.28.596263", "experiment_in_all_cases": "cryo-EM structure", "key": {"[1]": {"target": "dephosphorylated CFTR of the P-ATP + AMP-PNP sample (human) (UniProt P13569)"}, "[2]": {"target": "recombinant human CFTR (cystic fibrosis transmembrane conductance regulator), wild type, dephosphorylated (human) (UniProt P13569)"}, "[3]": {"target": "fully-phosphorylated CFTR carrying the ATP-hydrolysis-disrupting E1371Q mutation (human) (UniProt P13569)"}}}
{"substance": "protein kinase A catalytic subunit purified from bovine heart (from UniProt P00517 1-351) (enzyme)", "values": [{"measurement": "stoichiometry N (PKA-C per CFTR)", "setting": "[1]", "value": 1}, {"measurement": "stoichiometry N (PKA-C per CFTR)", "setting": "[2]", "value": 2}, {"measurement": "stoichiometry N (PKA-C per CFTR)", "setting": "[3]", "value": 1}]}
